Source: publication PMC6525205, “Structure of the human frataxin-bound iron-sulfur cluster assembly complex provides insight into its activation mechanism” (Nature Communications, 2019)

target: T1, NFS1-ISD11-ACP-ISCU complex with biotinylated ISCU (SDAUb) (human | E. coli, UniProt Q9Y697 56-457; Q9HD34 1-91; P0A6A8 1-74; Q9H1K1 35-167, pyridoxal 5′-phosphate covalently-linked to Lys258 | 4′-phosphopantetheine (4′-PP) acyl-chain attached to Ser37 | biotin (site and method not stated)); assay: BLI; SDAUb complex (biotinylated ISCU) at 0.1 mg/mL loaded on streptavidin sensors; FXN 500 µM to 1 nM in solution; 25 °C; 50 mM HEPES pH 7.5, 200 mM NaCl, 5% glycerol, 2 mM TCEP, 5 mM DTT, 0.5 mg/mL BSA; Kd from response vs. [FXN], one site-specific binding fit; conditions: both partners purified
T1 construct: NFS1 cysteine desulfurase, human, Δ1-55; C-terminal residue printed as His457; ISD11/LYRM4, human; E. coli acyl carrier protein (ACPec), endogenous in the expression host, co-purified; ISCU scaffold protein, human, isoform 1, Δ1-34; the related SDAUF complex holds two copies of each chain; source: purified SDA (E. coli) combined with biotinylated ISCU (E. coli) and isolated on Superdex 200 …
T1 sequence (Q9Y697 56-457, chain 1 of 4): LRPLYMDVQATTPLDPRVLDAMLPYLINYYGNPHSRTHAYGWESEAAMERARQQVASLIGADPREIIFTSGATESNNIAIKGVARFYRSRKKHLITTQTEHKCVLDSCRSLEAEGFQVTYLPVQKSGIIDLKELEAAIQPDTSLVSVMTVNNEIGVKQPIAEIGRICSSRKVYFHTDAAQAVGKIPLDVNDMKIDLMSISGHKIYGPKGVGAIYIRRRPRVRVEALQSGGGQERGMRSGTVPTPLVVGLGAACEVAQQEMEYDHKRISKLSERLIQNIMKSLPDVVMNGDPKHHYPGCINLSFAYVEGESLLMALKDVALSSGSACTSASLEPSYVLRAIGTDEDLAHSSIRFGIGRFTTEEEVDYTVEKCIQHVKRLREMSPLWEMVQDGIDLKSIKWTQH
T1 sequence (Q9HD34 whole entry, chain 2 of 4, canonical isoform): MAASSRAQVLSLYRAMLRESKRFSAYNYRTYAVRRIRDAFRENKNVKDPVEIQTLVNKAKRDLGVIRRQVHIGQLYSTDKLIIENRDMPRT
T1 sequence (P0A6A8 1-74, chain 3 of 4): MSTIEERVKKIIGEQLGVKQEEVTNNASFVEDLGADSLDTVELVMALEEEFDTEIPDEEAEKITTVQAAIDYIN
T1 sequence (Q9H1K1 35-167, chain 4 of 4): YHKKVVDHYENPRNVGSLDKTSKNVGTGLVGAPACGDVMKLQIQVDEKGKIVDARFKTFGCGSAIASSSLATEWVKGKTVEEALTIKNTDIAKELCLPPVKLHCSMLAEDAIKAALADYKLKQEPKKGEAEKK

Kd [µM] | Binder
3.32 | human frataxin (FXN) (Δ1-80), wild-type (domain or fragment, UniProt Q16595 81-210, looked up, frataxin (FXN), human, Δ1-80; Cloned into pCDF-LIC-Bsa4; Two copies of FXN stand in the SDAUF heterodecamer; also called FXN(WT); WT; source: E. coli BL21(DE3)-R3-pRARE2, purified (Ni Sepharose, Superdex S75, TEV, reverse Ni); for cryo-EM co-expressed with the His-ISD11/NFS1/ISCU plasmid and purified as the SDAUF complex) SGTLGHPGSLDETTYERLAEETLDSLAEFFEDLADKPYTFEDYDVSFGSGVLTVKLGGDLGTYVINKQTPNKQIWLSSPSSGPKRYDWTGKNWVYSHDGVSLHELLAAELTKALKTKLDLSSLAYSGKDA
14.4 | FXN(D124A) (domain or fragment, human, UniProt Q16595 81-210, looked up, frataxin (FXN), human, Δ1-80, site-directed variant; Variant of m1) SGTLGHPGSLDETTYERLAEETLDSLAEFFEDLADKPYTFEDYAVSFGSGVLTVKLGGDLGTYVINKQTPNKQIWLSSPSSGPKRYDWTGKNWVYSHDGVSLHELLAAELTKALKTKLDLSSLAYSGKDA
9.45 | FXN(N151A) (domain or fragment, human, UniProt Q16595 81-210, looked up, frataxin (FXN), human, Δ1-80, site-directed variant; Variant of m1) SGTLGHPGSLDETTYERLAEETLDSLAEFFEDLADKPYTFEDYDVSFGSGVLTVKLGGDLGTYVINKQTPAKQIWLSSPSSGPKRYDWTGKNWVYSHDGVSLHELLAAELTKALKTKLDLSSLAYSGKDA
253 | FXN(W155R) (domain or fragment, human, UniProt Q16595 81-210, looked up, frataxin (FXN), human, Δ1-80, clinical variant of Friedreich's ataxia; Variant of m1) SGTLGHPGSLDETTYERLAEETLDSLAEFFEDLADKPYTFEDYDVSFGSGVLTVKLGGDLGTYVINKQTPNKQIRLSSPSSGPKRYDWTGKNWVYSHDGVSLHELLAAELTKALKTKLDLSSLAYSGKDA
177 | FXN(N146K) (domain or fragment, human, UniProt Q16595 81-210, looked up, frataxin (FXN), human, Δ1-80, clinical variant of Friedreich's ataxia; Variant of m1) SGTLGHPGSLDETTYERLAEETLDSLAEFFEDLADKPYTFEDYDVSFGSGVLTVKLGGDLGTYVIKKQTPNKQIWLSSPSSGPKRYDWTGKNWVYSHDGVSLHELLAAELTKALKTKLDLSSLAYSGKDA
134 | FXN(R165C) (domain or fragment, human, UniProt Q16595 81-210, looked up, frataxin (FXN), human, Δ1-80, clinical variant of Friedreich's ataxia; Variant of m1) SGTLGHPGSLDETTYERLAEETLDSLAEFFEDLADKPYTFEDYDVSFGSGVLTVKLGGDLGTYVINKQTPNKQIWLSSPSSGPKCYDWTGKNWVYSHDGVSLHELLAAELTKALKTKLDLSSLAYSGKDA
38.5 | FXN(P163G) (domain or fragment, human, UniProt Q16595 81-210, looked up, frataxin (FXN), human, Δ1-80, site-directed variant (Gly is the bacterial equivalent residue); Variant of m1) SGTLGHPGSLDETTYERLAEETLDSLAEFFEDLADKPYTFEDYDVSFGSGVLTVKLGGDLGTYVINKQTPNKQIWLSSPSSGGKRYDWTGKNWVYSHDGVSLHELLAAELTKALKTKLDLSSLAYSGKDA
